Target: T1, TPP-599 (HUMAN-TNFRSF12Aaa28-80-hIgG1-Fc) (human, biotinylated with Biotin-LC-NHS (about 2-fold molar excess))
T1 construct: Dimeric Fc-fused extracellular domain of human TWEAKR, used biotinylated in the panning and the Fab ELISA; also called TWEAKR Fc; TWEAKR-Fc
Assay: ELISA, soluble Fab on 2.5 nM biotinylated TWEAKR-Fc, anti-c-myc detection
Method: Affinity maturation was carried out by phage panning. Washed magnetic beads (DynaBeads) were incubated at 4° C. with 10 nM, 1 nM, 100 pM and 10 pM of biotinylated human antigen overnight and blocked with blocking buffer (PBS with 3% BSA, 0.05% Tween-20) at 4° C. for 1 h. The blocked Fab phage library was added to the blocked TWEAKR DynaBeads at 10 000-fold, 1000-fold and 100-fold excess, compared to the theoretical library complexity, and incubated at room temperature for 30 min. Thus, 12 strategies in total were followed (4 antigen concentrations×3 Fab phage titers). […] For the expression of soluble Fab, the phagemide vector was digested with MluI to remove the gene III-membrane anchor sequence required for Fab display on the phage, and ligated again. 96 variants of each of the 12 selection pools were expressed as soluble Fabs and examined in an ELISA format. […] For efficacy maturation, HEK293 cells were transfected with an NF-kappaB reporter (BioCat, Cat. No. LR-0051-PA). Transfected cells were sown in F17 media (serum-free; Invitrogen) in white polylysine-coated 384-well plates (BD), and individual variants of the NNK-diversified position antibody (human IgG1) libraries were expressed transiently in mammalian cells. The next day, NF-kappaB reporter cells were stimulated with the expressed single-NNK antibody variants for 6 h, and a luciferase assay was then carried out by standard methods.

binding result	Binder
binds	TPP-883 single-substitution variant A51Q of CDR-L2 (soluble Fab) (Fab, V domains shown, Soluble Fab) VH: EVQLLESGGGLVQPGGSLRLSCAASGFTFSPYPMMWVRQAPGKGLEWVSYISPSGGKTHYADSVKGRFTISRDNSKNTLYLQMNSLRAEDTAVYYCARGGDGYFDYFDYWGQGTLVTVSS VL: DIQMTQSPATLSASVGDRVTITCRASQSISSYLNWYQQKPGKAPKLLIYQASSLQSGVPSRFSGSGSGTDFTLTISSLQPEDFATYYCQQSYSSPGITFGPGTKVEIK
binds	TPP-883 single-substitution variant M35I of CDR-H1 (soluble Fab) (Fab, V domains shown, Soluble Fab; also called M351) VH: EVQLLESGGGLVQPGGSLRLSCAASGFTFSPYPMIWVRQAPGKGLEWVSYISPSGGKTHYADSVKGRFTISRDNSKNTLYLQMNSLRAEDTAVYYCARGGDGYFDYFDYWGQGTLVTVSS VL: DIQMTQSPATLSASVGDRVTITCRASQSISSYLNWYQQKPGKAPKLLIYAASSLQSGVPSRFSGSGSGTDFTLTISSLQPEDFATYYCQQSYSSPGITFGPGTKVEIK
binds	TPP-883 single-substitution variant G102T of CDR-H3 (soluble Fab) (Fab, V domains shown, Soluble Fab; also called best single-substitution variant G102T) VH: EVQLLESGGGLVQPGGSLRLSCAASGFTFSPYPMMWVRQAPGKGLEWVSYISPSGGKTHYADSVKGRFTISRDNSKNTLYLQMNSLRAEDTAVYYCARGGDTYFDYFDYWGQGTLVTVSS VL: DIQMTQSPATLSASVGDRVTITCRASQSISSYLNWYQQKPGKAPKLLIYAASSLQSGVPSRFSGSGSGTDFTLTISSLQPEDFATYYCQQSYSSPGITFGPGTKVEIK
binds	TPP-883 single-substitution variant G97F of CDR-L3 (soluble Fab) (Fab, V domains shown, Soluble Fab) VH: EVQLLESGGGLVQPGGSLRLSCAASGFTFSPYPMMWVRQAPGKGLEWVSYISPSGGKTHYADSVKGRFTISRDNSKNTLYLQMNSLRAEDTAVYYCARGGDGYFDYFDYWGQGTLVTVSS VL: DIQMTQSPATLSASVGDRVTITCRASQSISSYLNWYQQKPGKAPKLLIYAASSLQSGVPSRFSGSGSGTDFTLTISSLQPEDFATYYCQQSYSSPFITFGPGTKVEIK
